According to PMC4468220, “Defective Proteasome Delivery of Polyubiquitinated Proteins by Ubiquilin-2 Proteins Containing ALS Mutations” (PLoS ONE, 2015):

Key:
Test in all cases: pull-down; 4 μg GST protein with 2 μg HIS-S5a in 800μL 2% Chaps buffer (20mM Tris pH 8.0, 150mM NaCl, 2mM MgCl2, 10% glycerol, 2.0% Chaps), glutathione agarose beads, 2 hrs at room temperature; washes with PBS, 2% Tween-20, 200 mM KCl; blot for S5a
Conditions in all cases: both partners purified
GST-ubiquilin-2 P525S = molecular target: T1, GST-ubiquilin-2 P525S (human, UniProt Q9UHD9 1-624, P525S)
T1 construct: ubiquilin-2, human, full-length cDNA, 624 aa, ALS-linked mutation P525S; pGST/His T1 vector; also called P525S mutation; source: E. coli BL21(DE3), purified (glutathione-agarose); not shown: GST, N-terminal, kept
T1 sequence (Q9UHD9 whole entry P525S): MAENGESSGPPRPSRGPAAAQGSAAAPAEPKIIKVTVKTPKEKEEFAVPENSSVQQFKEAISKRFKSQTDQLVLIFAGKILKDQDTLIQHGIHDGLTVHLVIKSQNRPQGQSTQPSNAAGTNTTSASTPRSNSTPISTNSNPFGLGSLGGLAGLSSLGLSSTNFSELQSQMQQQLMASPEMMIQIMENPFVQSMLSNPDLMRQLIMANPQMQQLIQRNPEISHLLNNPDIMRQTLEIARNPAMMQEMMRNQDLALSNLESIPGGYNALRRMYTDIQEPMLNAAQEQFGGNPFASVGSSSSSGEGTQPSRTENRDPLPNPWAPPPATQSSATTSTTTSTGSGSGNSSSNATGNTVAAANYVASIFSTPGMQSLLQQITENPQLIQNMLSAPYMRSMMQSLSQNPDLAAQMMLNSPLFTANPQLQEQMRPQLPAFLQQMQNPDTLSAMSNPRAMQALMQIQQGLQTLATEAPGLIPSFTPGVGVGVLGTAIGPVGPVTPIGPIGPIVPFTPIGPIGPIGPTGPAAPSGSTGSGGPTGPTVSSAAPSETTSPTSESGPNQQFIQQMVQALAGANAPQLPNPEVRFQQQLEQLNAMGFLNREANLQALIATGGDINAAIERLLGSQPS

GST-ubiquilin-2 P497H = molecular target: T2, GST-ubiquilin-2 P497H (human, UniProt Q9UHD9 1-624, P497H)
T2 construct: ubiquilin-2, human, full-length cDNA, 624 aa, ALS-linked mutation P497H; pGST/His T1 vector; also called P497H mutation; source: E. coli BL21(DE3), purified (glutathione-agarose); not shown: GST, N-terminal, kept
T2 sequence (Q9UHD9 whole entry P497H): as the sequence (Q9UHD9 whole entry P525S) above, with P497H, S525P counted along it

GST-ubiquilin-2 P497S = molecular target: T3, GST-ubiquilin-2 P497S (human, UniProt Q9UHD9 1-624, P497S)
T3 construct: ubiquilin-2, human, full-length cDNA, 624 aa, ALS-linked mutation P497S; pGST/His T1 vector; also called P497S mutation; source: E. coli BL21(DE3), purified (glutathione-agarose); not shown: GST, N-terminal, kept
T3 sequence (Q9UHD9 whole entry P497S): as the sequence (Q9UHD9 whole entry P525S) above, with P497S, S525P counted along it

[1] = molecular target: T4, GST-ubiquilin-2 wild type (human, UniProt Q9UHD9 1-624)
T4 construct: ubiquilin-2, human, full-length cDNA, 624 aa; cloned downstream of GST in the pGST/His T1 vector; also called GST-fusion protein encoding WT ubiquilin-2; source: E. coli BL21(DE3), purified (glutathione-agarose); not shown: GST, N-terminal, kept
T4 sequence (Q9UHD9 whole entry, the tested form may be a part): as the sequence (Q9UHD9 whole entry P525S) above, with S525P counted along it

GST-ubiquilin-2 P506T = molecular target: T5, GST-ubiquilin-2 P506T (human, UniProt Q9UHD9 1-624, P506T)
T5 construct: ubiquilin-2, human, full-length cDNA, 624 aa, ALS-linked mutation P506T; pGST/His T1 vector; also called P506T mutation; source: E. coli BL21(DE3), purified (glutathione-agarose); not shown: GST, N-terminal, kept
T5 sequence (Q9UHD9 whole entry P506T): as the sequence (Q9UHD9 whole entry P525S) above, with P506T, S525P counted along it

GST-ubiquilin-2 P509S = molecular target: T6, GST-ubiquilin-2 P509S (human, UniProt Q9UHD9 1-624, P509S)
T6 construct: ubiquilin-2, human, full-length cDNA, 624 aa, ALS-linked mutation P509S; pGST/His T1 vector; also called P509S mutation; source: E. coli BL21(DE3), purified (glutathione-agarose); not shown: GST, N-terminal, kept
T6 sequence (Q9UHD9 whole entry P509S): as the sequence (Q9UHD9 whole entry P525S) above, with P509S, S525P counted along it

Measured: binding result

B1: HIS-tagged human S5a protein (natural protein, UniProt P55036 1-377, looked up)
chain: MVLESTMVCVDNSEYMRNGDFLPTRLQAQQDAVNIVCHSKTRSNPENNVGLITLANDCEVLTTLTPDTGRILSKLHTVQPKGKITFCTGIRVAHLALKHRQGKNHKMRIIAFVGSPVEDNEKDLVKLAKRLKKEKVNVDIINFGEEEVNTEKLTAFVNTLNGKDGTGSHLVTVPPGPSLADALISSPILAGEGGAMLGLGASDFEFGVDPSADPELALALRVSMEEQRQRQEEEARRAAAASAAEAGIATTGTEDSDDALLKMTISQQEFGRTGLPDLSSMTEEEQIAYAMQMSLQGAEFGQAESADIDASSAMDTSEPAKEEDDYDVMQDPEFLQSVLENLPGVDPNNEAIRNAMGSLASQATKDGKKDKKEEDKK
notes: S5a subunit of the 19S cap of the proteasome, human, entire open reading frame (377 aa); cloned in pET-21a; also called His-S5a; HIS-S5a; source: E. coli BL21(DE3), purified (Ni-NTA agarose)
binds: all assays above
